Experimental data as given in patent US20230250178A1 (published 2023).

What was measured:
[1] = biological target: T1, human CCR8 (human, UniProt P51685 1-355); experiment: FACS
T1 construct: also called hCCR8; P51685_CCR8_HUMAN

[2] = biological target: T2, cynomolgus CCR8 (cynomolgus, UniProt O97665 1-356 (rhesus entry)); experiment: FACS
T2 construct: also called cynoCCR8; G7NYJ2_CCR8_MACFA

[3] = biological target: T3, murine CCR8 (mouse, UniProt P56484 1-353); experiment: FACS, murine iTregs
T3 construct: also called mCCR8; P56484_CCR8_MOUSE
T3 sequence: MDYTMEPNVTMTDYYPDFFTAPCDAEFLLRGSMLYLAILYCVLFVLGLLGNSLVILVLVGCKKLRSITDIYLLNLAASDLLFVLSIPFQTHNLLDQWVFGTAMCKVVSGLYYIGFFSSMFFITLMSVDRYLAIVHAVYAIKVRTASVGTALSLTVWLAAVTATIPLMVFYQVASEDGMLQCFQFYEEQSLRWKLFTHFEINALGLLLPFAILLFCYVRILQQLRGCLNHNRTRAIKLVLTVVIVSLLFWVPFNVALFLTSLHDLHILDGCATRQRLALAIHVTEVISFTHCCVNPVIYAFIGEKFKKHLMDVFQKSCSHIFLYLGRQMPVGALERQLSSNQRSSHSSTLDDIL

[4] = biological target: T3, murine CCR8; experiment: FACS, CHO-mCCR8
[5] = biological target: T4, HSA alone (human, UniProt P02768 25-609); experiment: SPR, IgG captured
T4 construct: control analyte; also called human serum albumin

[6] = biological target: T5, TPP-19951, His6-tagged murine CCR8 TRD fused with human serum albumin (mouse; human, not fully specified); experiment: SPR, IgG captured, TRD-HSA analyte
T5 construct: non-sulfated TRD; also called CCR8-HSA fusion protein (mouse); not shown: human serum albumin (HSA), C-terminal fusion partner
T5 chain: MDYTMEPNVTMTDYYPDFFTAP
Method: IgGs were captured using anti-human Fc IgGs covalently amine coupled to a CM5 sensor chip. […] The respective CCR8-HSA fusion protein was used as analyte with a concentration range of 1.56-200 nM in multicycle kinetics mode. Obtained sensorgrams were fitted to a 1:1 Langmuir binding model.

T2 sequence (O97665 other isoform, or with tags, fused parts or gaps): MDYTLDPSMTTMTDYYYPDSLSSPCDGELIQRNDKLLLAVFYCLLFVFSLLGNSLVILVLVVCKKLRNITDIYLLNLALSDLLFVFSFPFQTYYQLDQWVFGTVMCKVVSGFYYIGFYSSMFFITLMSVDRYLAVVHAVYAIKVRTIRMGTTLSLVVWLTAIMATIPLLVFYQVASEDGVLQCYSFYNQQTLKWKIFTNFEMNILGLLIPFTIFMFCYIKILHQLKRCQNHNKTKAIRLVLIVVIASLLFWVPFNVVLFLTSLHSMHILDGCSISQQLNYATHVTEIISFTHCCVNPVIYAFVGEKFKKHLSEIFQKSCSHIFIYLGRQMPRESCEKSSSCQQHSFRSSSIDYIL

B1: TPP-14099 (antibody, human IgG1, lambda, V domains shown)
VH: EVQLLESGGGLVQPGGSLRLSCAASGFTFSDYGVHWVRQAPGKGLEWVSGVSWNGSRTHYADSVKGRFTISRDNSKNTLYLQMNSLRAEDTAVYYCVTRGAWGQGTLVTVSS
VL: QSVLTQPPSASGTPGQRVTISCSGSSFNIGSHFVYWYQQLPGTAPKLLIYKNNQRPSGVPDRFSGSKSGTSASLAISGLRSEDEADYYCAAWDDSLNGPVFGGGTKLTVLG
notes: anti-murine CCR8, human IgG1 lambda; also called 497A-M005-F02-hIgG1Lambda
For B1, the binding result [1] was “no binding”, the binding result [2] was “no binding” and the EC50 [3] was 13.2 nM. The EC50 [4] was 3 nM, the binding result [5] was “no binding” and the Kd [6] was 520 nM. It also gave a koff [6] of 0.0011 s⁻¹ and a kon [6] of 2200 M⁻¹ s⁻¹.
